Changes are numbered by the printed parent chain.
B1: 1193-C08 (scFv)
scFv: EVQLLESGGGLVQPGGSLRLSCAASGFTFNNNWMSWVRQAPGKGLEWVGIINGDDGYTYYADRVKGRFTIIRDNSKNTLYLQMNSLRAEDTAVYYCAKVALGRPRRFDYWGQGTLVTVSSGGGGSGGGGSGGGGSEIVLTQSPGTLSLTPGERATLSCRASQSVSSNYLAWYQQKPGQAPRLLIYGASSRATGIPDRFSGSGSGTDFTLTISRLEPEDFAMYYCQQHYTTPPTFGQGTKVEIK
B2: 1193-E06b (scFv)
scFv: EVQLLESGGGLVQPGGSLRLSCAASGFTFNNTDMSWVRQAPGKGLEWVGIINGSGGATNYADSVKGRFTISRDNSKNTLYLQMNSLRAEDTAVYYCAKFENEWEVSMDYWGQGTLVTVSSGGGGSGGGGSGGGGSEIVLTQSPGTLSLSPGERATLSCRASQSVSSSYLAWYQQKPGQAPRLLIYGASSRATGIPDRFSGSGSGTDFTLTISRLEPEDFAVYYCQQHYTTPPTFGQGTKVEIK
B3: 1193-H04b (scFv)
scFv: EVQLLESGGGLVQPGGSLRLSCAASGFTFTSSWMSWVRQAPGKGLEWVGIINGYNGITYYADSVKGRFTISRDNSKNTLYLQMNSLRAEDTAVYYCAKPSAPGARRFDYWGQGTLVTVSSGGGGSGGGGSGGGGSEIVLTQSPGTLSLSPGEATLSCRASQSVSSSYLAWYQQRPGQAPRLLIYGASSRATGIPDRFSGSGSGTDFTLTISRLEPEDFAVYYCQQHYTTPPTFGQGTKVEIK
B4: 1447-E08 scFv-Fc (Fc fusion, part only; not given: Fc portion, part only)
chain, part: EVQLLESGGGLVQPGGSLRLSCAASGFTFNDTDMSWVRQAPGKGLEWVGMINGAGGASFYADSVRGRFTISRDNSKNTLYLQMNSLRAEDTAVYYCAKFENQWEVTFDYWGQGTLVTVSSGGGGSGGGGSGGGGSEIVLTQSPGTLSLSPGERATLSCRASQRVAGIDLSWYQQKPGQAPRLLIYGASSRATGIPDRFSGSGSGTDFTLTISRLEPEDFAVYYCQQHNTTPPTFGQGTKVEIK
B5: 1447-G01 scFv-Fc (Fc fusion, part only; not given: Fc portion, part only)
chain, part: EVQLLESGGGLVQPGGSLRLSCAASGFTFNTSDMSWVRQAPGKGLEWVGIINGSGGATNYADSVKGRFTISRDNSKNTLYLQMNSLRAEDTAVYYCAKYENEMEVSMDYWGQGTLVTVSSGGGGSGGGGSGGGGSEIVLTQSPGTLSLSPGERATLSCRASQSVSSRELGWYQQKPGQAPRLLIYGASSRATGIPDRFSGSGSGTDFTLTISRLEPEDFAVYYCQQQCSWPPTFGQGTKVEIK
B6: 1251-A03 heavy chain paired with VL SEQ ID NO: 272 (antibody, V domains shown)
VH: QVQLVESGGGVVQPGRSLRLSCAASGFAFSDHGMHWVRQAPDKGLEWVAVIWYDGSHKIYADSVKGRFTISRDNSKNTLYLQMNSLRAEDTAVYYCARGGSLAGGAVYGTDVWGQGTTVTVSS
VL: DIQMTQSPSSLSASVGDRVTITCRASQGISSWLAWYQQKPEKAPKSLIYAASSLQSGVPSRFSGSGSGTDFTLTISSLQPEDFATYYCQQYNSYPLTFGGGTKVEIK
B7: 1337-A08 light chain paired with VH 1251-A06 (SEQ ID NO: 236) (Fab, V domains shown)
VH: QVQLVESGGGVVQPGRSLRLSCAASGFDFSSYGMHWVRQAPDKGLEWVAVIWDDGSDRYYADSVKGRFTISRDNSKNTLYLQMNSLRAEDTAVYYCARGGTRVLGAIHGTDVWGQGTTVTVSS
VL: B6 VL with G28D, S30G, L33V, A51S, S52D
B8: 1251-A02 heavy chain paired with VL SEQ ID NO: 272 (antibody, V domains shown)
VH: B6 VH
VL: B6 VL
B9: 1251-E06 heavy chain paired with VL SEQ ID NO: 272 (antibody, V domains shown)
VH: QVQLVESGGGVVQPGRSLRLSCAASGFTFDSYGMHWVRQAPDKGLEWVAVIWYDGSNKVYADSVKGRFTISRDNSKNTLYLQMNSLRAEDTAVYYCARGGMVGQGAMFGLDVWGQGTTVTVSS
VL: B6 VL
B10: 1251-G02 heavy chain paired with VL SEQ ID NO: 272 (antibody, V domains shown)
VH: B7 VH with D28T, D53H, D57K, R58D, T101Q, R102L, V103D, L104H, H108Y, T110L
VL: B6 VL
B11: 1251-B09 heavy chain paired with VL SEQ ID NO: 272 (antibody, V domains shown)
VH: QVQLVESGGGVVQPGRSLRLSCAASGFNFSDYGMHWVRQAPDKGLEWVAVTWYDGSREYYADSVKGRFTISRDNSKNTLYLQMNSLRAEDTAVYYCARGGTLVHGALYGNDVWGQGTTVTVSS
VL: B6 VL
B12: 1337-A10 light chain paired with VH 1251-A06 (SEQ ID NO: 236) (Fab, V domains shown)
VH: B7 VH
VL: B6 VL with L33V, A50G, A51S, S53R, S93T
B13: 1251-C03 heavy chain paired with VL SEQ ID NO: 272 (antibody, V domains shown)
VH: QVQLVESGGGVVQPGRSLRLSCAASGFNFSSYGMHWVRQAPDKGLEWVAVIWYDGSIKNYADSVKGRFTISRDNSKNTLYLQMNSLRAEDTAVYYCARGGALMRGEFSGHDVWGQGTTVTVSS
VL: B6 VL
B14: 1251-D02 heavy chain paired with VL SEQ ID NO: 272 (antibody, V domains shown)
VH: B7 VH with D28S, S30A, Y32H
VL: B6 VL
B15: 1251-A06 heavy chain paired with VL SEQ ID NO: 272 (antibody, V domains shown)
VH: B7 VH
VL: B6 VL
B16: 1251-D09 heavy chain paired with VL SEQ ID NO: 272 (antibody, V domains shown)
VH: B7 VH with D28S, D53Y, G55A, D57I, Y59K, D62G, R102V, V103E, L104R, H108Y
VL: B6 VL
B17: 1337-A06 light chain paired with VH 1251-A06 (SEQ ID NO: 236) (Fab, V domains shown)
VH: B7 VH
VL: B6 VL with G28D, S30G, L33V, A50G, S52D, S53R
B18: 1337-A04 light chain paired with VH 1251-A06 (SEQ ID NO: 236) (Fab, V domains shown)
VH: B7 VH
VL: B6 VL with G28D, S30G, S31R, L33V, A50G, S93T
B19: 1251-B08 heavy chain paired with VL SEQ ID NO: 272 (antibody, V domains shown)
VH: B11 VH with T51I, R57I, E58S, L102V, V103E, L107V, N110T, T117A
VL: B6 VL
B20: 1251-D06 heavy chain paired with VL SEQ ID NO: 272 (antibody, V domains shown)
VH: B11 VH with N28S, S30G, D31S, T51V, R57K, E58T, Y59I, H104R, L107V, N110L
VL: B6 VL
B21: 1251-F07 heavy chain paired with VL SEQ ID NO: 272 (antibody, V domains shown)
VH: B7 VH with D28T, Y32H, D57N, R58E, Y59V, V103I, L104R, A106L, I107R, H108Y
VL: B6 VL
B22: 1337-A05 light chain paired with VH 1251-A06 (SEQ ID NO: 236) (Fab, V domains shown)
VH: B7 VH
VL: B6 VL with S30G, S31R, L33V, A50G, S52D, S53R
B23: 1251-F06 heavy chain paired with VL SEQ ID NO: 272 (antibody, V domains shown)
VH: QVQLVESGGGVVQPGRSLRLSCAASGFTFSSFGMHWVRQAPDKGLEWVAVIWYDGSNEYYADSVKGRFTISRDNSKNTLYLQMNSLRAEDTAVYYCARGGSLVTRGVYGLDVWGQGTTVTVSS
VL: B6 VL
B24: 1337-A07 light chain paired with VH 1251-A06 (SEQ ID NO: 236) (Fab, V domains shown)
VH: B7 VH
VL: B6 VL with L33V, A50G, S53R, N92H, S93T
B25: 1337-A09 light chain paired with VH 1251-A06 (SEQ ID NO: 236) (Fab, V domains shown)
VH: B7 VH
VL: B6 VL with S30G, S52D, S53R, N92H, S93T
B26: 1193-B06 (scFv)
scFv: EVQLLESGGGLVQPGGSLRLSCAASGFTFTGNWMSWVRQAPGKGLEWVGIIYGTSGATYYADSVKGRFTISRDNSKNTLYLQMNSLRAEDTAVYYCAKPSMSGSRGFDYWGQGTLVTVSSGGGGSGGGGSGGGGSEIVLTQSPGTLSLSPGERATLSCRAGQSVSSSYLAWYQQKPGQAPRLLIYGASSRATGIPDRFSGSGSGTDFTLTISRLEPEDFAVYYCQQHYTTPPTFGQGTKVEIK

Tests used:
[1] = molecular target: CD74 on CD74 positive SU-DHL-6 cells, P04233; assay: cell-based or functional assay
Sequence of CD74 on CD74 positive SU-DHL-6 cells, P04233 (P04233 whole entry): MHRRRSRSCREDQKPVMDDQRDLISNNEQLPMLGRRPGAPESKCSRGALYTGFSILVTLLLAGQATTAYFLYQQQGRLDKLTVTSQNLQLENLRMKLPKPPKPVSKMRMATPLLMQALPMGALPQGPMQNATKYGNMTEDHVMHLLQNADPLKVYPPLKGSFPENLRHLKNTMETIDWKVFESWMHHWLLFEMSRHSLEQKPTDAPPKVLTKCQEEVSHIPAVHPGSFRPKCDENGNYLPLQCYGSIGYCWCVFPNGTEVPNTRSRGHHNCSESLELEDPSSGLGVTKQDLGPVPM

[2] = molecular target: CD74 on CD74 positive SU-DHL-6 cells (UniProt P04233); assay: cell-based or functional assay
Sequence of CD74 on CD74 positive SU-DHL-6 cells (P04233 whole entry): as above

Binder	2nd ADC Cell Killing IC50 [1]	2nd ADC Cell Killing IC50 [2]
B1	8660 pM	
B2	8670 pM	
B3	14800 pM	
B4		2560 pM
B5		650 pM
B6	10 pM	
B7	7 pM	
B8	9 pM	
B9	15 pM	
B10	13 pM	
B11	7 pM	
B12	6 pM	
B13	50 pM	
B14	14 pM	
B15	0.2 pM	
B16	7 pM	
B17	4 pM	
B18	4 pM	
B19	7 pM	
B20	4 pM	
B21	9 pM	
B22	4 pM	
B23	17 pM	
B24	4 pM	
B25	4 pM	
B26	10300 pM	

Source: patent US20170253656A1
